Here are results for three molecules from paper PMC3808318, “A type III ACC synthase, ACS7, is involved in root gravitropism in Arabidopsis thaliana” (Journal of Experimental Botany, 2013).

By Kd is commonly meant the concentration at which binding is half-saturated.

Substitutions are numbered along the chain they refer to.

For one experiment, the target named is 14-3-3ω (UniProt Q01525). Briefly: quartz crystal microbalance (QCM). The settings on record: reference: untreated 6His-SUMO-ACS7; sites S216,T296,S299.
The target in experiment [1] is T1, AtCDPK16 (G-AtCDPK16-6His) (Arabidopsis thaliana, UniProt Q7XJR9).
T1 construct: gene CPK16; recombinant from E. coli, N-terminal G (GST) and C-terminal 6His tags, about 100 kDa with tags
T1 sequence (Q7XJR9 1-571): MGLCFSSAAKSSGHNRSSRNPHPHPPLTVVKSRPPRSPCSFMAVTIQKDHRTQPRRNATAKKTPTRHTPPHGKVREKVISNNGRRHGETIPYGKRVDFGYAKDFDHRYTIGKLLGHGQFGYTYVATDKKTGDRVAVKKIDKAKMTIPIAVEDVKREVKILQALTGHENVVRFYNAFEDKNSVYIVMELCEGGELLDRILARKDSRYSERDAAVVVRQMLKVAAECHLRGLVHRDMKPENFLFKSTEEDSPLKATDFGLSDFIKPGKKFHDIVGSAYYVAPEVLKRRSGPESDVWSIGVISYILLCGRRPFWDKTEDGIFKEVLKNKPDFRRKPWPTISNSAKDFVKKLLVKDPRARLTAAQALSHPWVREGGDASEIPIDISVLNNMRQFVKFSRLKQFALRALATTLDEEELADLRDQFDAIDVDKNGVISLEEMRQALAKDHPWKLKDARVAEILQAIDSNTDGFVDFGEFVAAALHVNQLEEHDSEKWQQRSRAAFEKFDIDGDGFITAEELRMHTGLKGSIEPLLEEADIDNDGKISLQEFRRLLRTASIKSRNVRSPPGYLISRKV
Briefly: in vitro kinase assay, […] autoradiography. It counts as biochemical. Conditions: 50 μM ATP spiked with [γ-32P]ATP, labelled compound; 6His-SUMO-AtACS7 as phosphoacceptor; Ca2+ dependent (shown with peptides P5-2 and P11-2); room temperature, 15 min.

Experiment [2] has as its target T2, AtCDPK16 (G-AtCDPK16-6His) (Arabidopsis thaliana, UniProt Q7XJR9, S274A/S541A).
T2 construct: gene CPK16; recombinant from E. coli, N-terminal G (GST) and C-terminal 6His tags, about 100 kDa with tags
T2 sequence (Q7XJR9 1-571 S274A/S541A): T1 sequence (Q7XJR9 1-571) with S274A, S541A
Put plainly: in vitro kinase assay, […] autoradiography. Conditions: 50 μM ATP spiked with [γ-32P]ATP, labelled compound; AtACS7 fusion protein and peptides as phosphoacceptors; room temperature, 15 min. Type of experiment: biochemical.

Experiment [3] concerns the target T3, 6His-SUMO–AtACS7 recombinant protein (Arabidopsis thaliana, UniProt Q9STR4 1-447).
T3 construct: 1-aminocyclopropane-1-carboxylate synthase 7 (AtACS7), Arabidopsis thaliana; called the full-length ACS7 recombinant protein; The printed name puts 6His and SUMO before ACS7; also called 6His-SUMO–ACS7; SUMO–ACS7; source: E. coli, purified (Ni-NTA)
T3 sequence (looked up): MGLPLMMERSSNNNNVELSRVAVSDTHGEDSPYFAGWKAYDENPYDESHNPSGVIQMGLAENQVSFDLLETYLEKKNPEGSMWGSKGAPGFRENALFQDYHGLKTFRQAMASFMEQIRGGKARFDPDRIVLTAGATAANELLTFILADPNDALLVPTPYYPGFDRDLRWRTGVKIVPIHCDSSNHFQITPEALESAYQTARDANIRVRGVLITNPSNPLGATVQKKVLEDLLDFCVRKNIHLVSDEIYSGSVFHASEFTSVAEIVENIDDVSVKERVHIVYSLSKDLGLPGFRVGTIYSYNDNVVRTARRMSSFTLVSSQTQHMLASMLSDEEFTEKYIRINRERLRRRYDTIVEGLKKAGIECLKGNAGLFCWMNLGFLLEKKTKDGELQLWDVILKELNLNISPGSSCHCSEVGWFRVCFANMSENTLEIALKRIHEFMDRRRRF
Briefly: quartz crystal microbalance (QCM); AFFINIX QN μ, PBS buffer; results: G-14-3-3ω coated on the sensor and 6His-SUMO–ACS7 injected (the methods tell the reverse order). The settings on record: both partners purified.

For experiment [4], the target named is T4, phosphorylated 6His-SUMO–ACS7 (phosphorylated by CDPK16 in vitro in advance) (Arabidopsis thaliana, UniProt Q9STR4 1-447, phosphorylated by CDPK16 in vitro; the sites that the paper identifies with fusion peptides are Ser216, Thr296 and Ser299).
T4 construct: 1-aminocyclopropane-1-carboxylate synthase 7 (AtACS7), Arabidopsis thaliana; the full-length ACS7 recombinant protein; source: E. coli, purified (Ni-NTA), then phosphorylated by CDPK16 in vitro
T4 sequence (looked up): T3 sequence (looked up)
Described as above. Conditions: both partners purified.

In the case of “AtACS7 (ACS7, type III ACC synthase) (from UniProt Q9STR4) 6His-SUMO-ACS7 phosphorylated by CDPK16 in vitro”, the KD result with 14-3-3ω is given as “same; reference 9.29±1.99×10–9”.
Take `Nc1ncnc2c1ncn2[C@@H]1O[C@H](COP(=O)(O)OP(=O)(O)OP(=O)(O)O)[C@@H](O)[C@H]1O` [ATP]: the “in vitro kinase assay, 32P autoradiography” value is recorded as “CDPK16 can phosphorylate the recombinant protein 6His-SUMO–AtACS7 in vitro” in experiment [1] and “autophosphorylation of the mutated recombinant protein (G-CDPK16-6His MT) was greatly reduced” in experiment [2].

B1: G-14-3-3ω recombinant protein (GST-tagged 14-3-3ω) (natural protein, Arabidopsis, UniProt Q01525 1-259, looked up)
chain: MASGREEFVYMAKLAEQAERYEEMVEFMEKVSAAVDGDELTVEERNLLSVAYKNVIGARRASWRIISSIEQKEESRGNDDHVTAIREYRSKIETELSGICDGILKLLDSRLIPAAASGDSKVFYLKMKGDYHRYLAEFKTGQERKDAAEHTLAAYKSAQDIANAELAPTHPIRLGLALNFSVFYYEILNSPDRACNLAKQAFDEAIAELDTLGEESYKDSTLIMQLLRDNLTLWTSDMQDDAADEIKEAAAPKPTEEQQ
notes: 14-3-3ω (14-3-3 omega), Arabidopsis; The printed name puts G (GST) before 14-3-3ω; also called 14-3-3ω protein; source: E. coli, purified (GST beads, glutathione elution)
With B1, the results for the Kd in experiment [3] and in experiment [4] were 9.29 nM and 5.05 nM, respectively.
